From patent US20240066142A1, “A UPAR (UROKINASE PLASMINOGEN ACTIVATOR RECEPTOR)-TARGETING CONJUGATE” (FLUOGUIDE A/S, priority 2021, published 2024)
Values belong to the molecule of their own block, whether it stands above or below them. Primed or numbered codes have the meaning given here. [ ]: non-standard residue; d: D form. Cha = N[C@@H](CC1CCCCC1)C(=O)O; IRDye800CW′ = not defined here; AEEA = NCCOCCOCC(=O)O

Key:
human uPAR = human uPAR (Homo sapiens, UniProt Q03405); assay: SPR binding of conjugate or uPA to immobilized His-tagged recombinant human uPAR
Description: SPR was also applied to determine the KD-value of binding of the uPAR-binding conjugate to uPAR.
The uPAR-binding conjugates as well as the endogenous ligand uPA were analyzed in 2-fold dilution series from low to high concentration with a running buffer injection in between each injection. Injection of uPAR-binding conjugate or uPA (at a rate of 50 μL/minute) was performed for 120 seconds (association), and dissociation was assessed for 120 s (at a rate of 50 μL/minute). Running buffer was PBS supplemented with 0.01% Tween-20 and 50 μM EDTA).
Binding affinities were determined using the above described SPR-based approach, measuring binding affinities (KD) of the uPAR-targeting conjugates to immobilized human uPAR protein (the tumor target protein).

uPAR·uPA interaction = uPAR·uPA interaction (Homo sapiens, UniProt Q03405); assay: SPR competition: inhibition of the uPAR·uPA interaction (immobilized human uPA, 2.5 nM uPAR); type: binding; settings: uPAR 2.5 nM pre-incubated 10 minutes with conjugate
Description: Surface plasmon resonance (SPR) was applied to determine the IC50-value of uPAR-targeting conjugate for its ability to inhibit the uPAR·uPA interaction. In brief, human recombinant uPA, which is the natural ligand for uPAR, was immobilized to the SPR sensor chip. Binding of uPAR at a concentration of 2.5 nM in the absence of UPAR-binding conjugate was examined, followed by analyses of a fixed uPAR concentration (2.5 nM) incubated with a 2-fold dilution series of uPAR-binding conjugate pre-incubated for 10 minutes at room temperature prior to injection. uPAR injection (at a rate of 50 μL/minute) was performed for 300 s (association), and dissociation was assessed for 500 s (at a rate of 50 μL/minute). The uPAR/uPAR-binding conjugate complex was injected from low to high concentration with a regeneration step followed by a buffer injection in between each injection. Regeneration was performed for 20 s by injection of 0.5 M NaCl+0.1 M Acetic acid at a 30 μL/min flow rate, followed by running buffer wash (running buffer: PBS supplemented with 0.01% Tween-20 and 50 μM EDTA).
From this type of SPR analysis, the IC50 values for uPAR-targeting conjugates were determined.
The top signal represents uPAR binding in the absence of uPAR-targeting conjugate.

[1] = molecular target: recombinant human uPAR containing a His-tag (immobilized to a NTA chip) (human) (UniProt Q03405); assay: SPR, His-tagged human uPAR on NTA chip, steady-state responses
[2] = molecular target: human uPAR (urokinase Plasminogen Activator Receptor), in solution at 2.5 nM in the competition SPR assay (human) (UniProt Q03405); assay: SPR competition: 2.5 nM uPAR pre-incubated with dilution series of conjugate, injected over immobilised human uPA
human uPAR (urokinase Plasminogen Activator Receptor), in solution at 2.5 nM in the competition SPR assay (human), sequence (Q03405 23-305 limits assumed): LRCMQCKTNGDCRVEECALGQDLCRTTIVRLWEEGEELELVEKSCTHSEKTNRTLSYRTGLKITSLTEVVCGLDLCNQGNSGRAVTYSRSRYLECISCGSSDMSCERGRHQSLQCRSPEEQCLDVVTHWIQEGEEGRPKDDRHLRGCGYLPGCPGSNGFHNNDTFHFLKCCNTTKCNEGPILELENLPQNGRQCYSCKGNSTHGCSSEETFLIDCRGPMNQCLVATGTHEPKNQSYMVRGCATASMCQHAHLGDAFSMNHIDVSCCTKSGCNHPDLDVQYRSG

recombinant human uPAR containing a His-tag (immobilized to a NTA chip) (human), sequence (Q03405 23-305 limits assumed): as above
uPAR·uPA interaction, sequence (Q03405 23-305): as the sequence (Q03405 23-305 limits assumed) above

Molecule: CC(C)C[C@H](NC(=O)[C@H](Cc1ccc(O)cc1)NC(=O)[C@@H](CCCNC(=N)N)NC(=O)[C@@H](CO)NC(=O)[C@H](Cc1ccccc1)NC(=O)[C@H](CC1CCCCC1)NC(=O)[C@H](CC(=O)O)NC(=O)COCCOCCNC(=O)COCCOCCNC(=O)[C@H](CCC(=O)O)NC(=O)[C@H](CCC(=O)O)NC(=O)CCCCCN1C(=CC=C2CCCC(C=CC3=[N+](CCCCS(=O)(=O)[O-])c4ccc(S(=O)(=O)O)cc4C3(C)C)=C2Oc2ccc(S(=O)(=O)O)cc2)C(C)(C)c2cc(S(=O)(=O)O)ccc21)C(=O)N[C@@H](Cc1c[nH]c2ccccc12)C(=O)N[C@@H](CO)C(=O)O [Compound example 2, IRDye800CW-EE-020c-020c-DChaFsrYLWS-OH]
kon (human uPAR; on-rate binding): ≥ 4.6e+06 M⁻¹ s⁻¹

Molecule: Compound example 1: uPAR-targeting conjugate based on the fluorophore ICG and the peptide AE105 (DXFSRYLWS; D-residues; non-natural residues; cyclised or stapled)
IC50 (uPAR·uPA interaction): 7 nM | Kd (human uPAR; KD from steady state binding responses where Kon too fast): 2000 nM | Kon (human uPAR; on-rate binding): ≥4.6e+06 M⁻¹ s⁻¹

Kd [1]: 325 nM | IC50 [2]: 24 nM
Molecule: {IRDye800CW′}-EE[AEEA][AEEA]D[Cha]F[dS][dR]YLWS-OH
